Tests used:
[1] = molecular target: T1, R295D/R296D mutant of full-length UHRF1 (human, UniProt Q96T88 1-793, R295D | R296D); experiment: ITC
T1 sequence: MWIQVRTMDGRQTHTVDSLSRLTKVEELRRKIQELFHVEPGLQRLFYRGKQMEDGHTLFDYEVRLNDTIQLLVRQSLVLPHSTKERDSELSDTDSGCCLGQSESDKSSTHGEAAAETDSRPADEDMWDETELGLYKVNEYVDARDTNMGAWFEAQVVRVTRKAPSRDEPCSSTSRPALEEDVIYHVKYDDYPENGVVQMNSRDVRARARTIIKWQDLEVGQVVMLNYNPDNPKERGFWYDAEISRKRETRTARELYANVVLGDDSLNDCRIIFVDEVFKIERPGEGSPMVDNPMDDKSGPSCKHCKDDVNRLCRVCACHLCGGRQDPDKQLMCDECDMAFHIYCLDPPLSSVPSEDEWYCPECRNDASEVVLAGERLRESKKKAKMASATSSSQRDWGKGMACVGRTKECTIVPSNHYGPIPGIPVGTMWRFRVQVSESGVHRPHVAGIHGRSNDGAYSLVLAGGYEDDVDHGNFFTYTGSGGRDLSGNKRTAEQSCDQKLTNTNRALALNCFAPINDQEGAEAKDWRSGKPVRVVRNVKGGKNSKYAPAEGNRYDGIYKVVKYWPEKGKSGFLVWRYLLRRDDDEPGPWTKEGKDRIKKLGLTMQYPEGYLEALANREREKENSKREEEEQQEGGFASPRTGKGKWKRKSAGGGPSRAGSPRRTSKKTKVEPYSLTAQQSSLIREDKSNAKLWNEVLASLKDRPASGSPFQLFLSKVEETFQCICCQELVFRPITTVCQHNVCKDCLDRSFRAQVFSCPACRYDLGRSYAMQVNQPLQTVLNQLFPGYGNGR

[2] = molecular target: T2, TTD of UHRF1 (residues 134–285) (human, UniProt Q96T88 134-285); experiment: ITC
T2 chain: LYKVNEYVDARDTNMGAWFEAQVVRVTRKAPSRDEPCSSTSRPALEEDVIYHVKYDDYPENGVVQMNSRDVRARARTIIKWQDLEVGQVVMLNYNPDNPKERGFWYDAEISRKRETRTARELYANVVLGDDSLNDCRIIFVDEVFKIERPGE

[3] = molecular target: T3, UHRF1^Δ627–674 (human, UniProt Q96T88 1-793, Δ627–674); experiment: ITC
T3 sequence: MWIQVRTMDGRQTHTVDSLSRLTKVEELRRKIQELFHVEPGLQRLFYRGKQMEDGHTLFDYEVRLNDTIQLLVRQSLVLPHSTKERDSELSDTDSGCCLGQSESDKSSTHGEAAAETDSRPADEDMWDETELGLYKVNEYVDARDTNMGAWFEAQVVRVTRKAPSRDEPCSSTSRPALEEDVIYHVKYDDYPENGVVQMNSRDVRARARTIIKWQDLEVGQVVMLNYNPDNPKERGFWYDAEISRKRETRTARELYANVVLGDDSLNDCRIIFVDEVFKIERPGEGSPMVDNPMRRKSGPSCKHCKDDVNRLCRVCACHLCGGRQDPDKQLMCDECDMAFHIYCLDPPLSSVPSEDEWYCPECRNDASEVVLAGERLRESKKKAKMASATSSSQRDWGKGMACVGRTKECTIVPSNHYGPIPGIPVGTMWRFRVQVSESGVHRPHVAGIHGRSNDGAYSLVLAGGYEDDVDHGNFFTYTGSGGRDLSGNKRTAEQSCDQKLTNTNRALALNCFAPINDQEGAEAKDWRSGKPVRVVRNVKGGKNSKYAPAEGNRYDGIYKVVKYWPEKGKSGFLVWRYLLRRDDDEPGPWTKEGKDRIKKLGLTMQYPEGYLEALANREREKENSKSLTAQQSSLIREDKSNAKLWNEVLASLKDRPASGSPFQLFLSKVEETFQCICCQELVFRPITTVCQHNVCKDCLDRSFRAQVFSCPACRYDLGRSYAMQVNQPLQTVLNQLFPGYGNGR

[4] = molecular target: T2, TTD of UHRF1 (residues 134–285); experiment: ITC; in presence of SRA
[5] = molecular target: T4, TTD–PHD of UHRF1 (residues 134–366) (human, UniProt Q96T88 134-366); experiment: ITC; in presence of Spacer (1:2)
T4 chain: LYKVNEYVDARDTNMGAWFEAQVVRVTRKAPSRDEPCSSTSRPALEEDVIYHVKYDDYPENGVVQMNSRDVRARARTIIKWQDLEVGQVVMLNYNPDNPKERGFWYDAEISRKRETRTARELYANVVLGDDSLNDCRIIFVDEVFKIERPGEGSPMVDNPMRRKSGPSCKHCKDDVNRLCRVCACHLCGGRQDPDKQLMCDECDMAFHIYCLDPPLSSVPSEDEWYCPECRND

[6] = molecular target: T2, TTD of UHRF1 (residues 134–285); experiment: ITC; in presence of Spacer K648D (1:2)
[7] = molecular target: T2, TTD of UHRF1 (residues 134–285); experiment: ITC; in presence of Spacer R649A (1:2)
[8] = molecular target: T2, TTD of UHRF1 (residues 134–285); experiment: ITC; in presence of Spacer S651D (1:2)
[9] = molecular target: T4, TTD–PHD of UHRF1 (residues 134–366); experiment: ITC; in presence of Spacer (TTD-PHD/Spacer 1:2)
[10] = molecular target: T5, PHD of UHRF1 (residues 307–366) (human, UniProt Q96T88 307-366); experiment: ITC
T5 chain: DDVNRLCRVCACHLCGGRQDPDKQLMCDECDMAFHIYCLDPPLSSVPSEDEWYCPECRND

[11] = molecular target: T6, PHD-SRA of UHRF1 (human); experiment: ITC
T6 chain: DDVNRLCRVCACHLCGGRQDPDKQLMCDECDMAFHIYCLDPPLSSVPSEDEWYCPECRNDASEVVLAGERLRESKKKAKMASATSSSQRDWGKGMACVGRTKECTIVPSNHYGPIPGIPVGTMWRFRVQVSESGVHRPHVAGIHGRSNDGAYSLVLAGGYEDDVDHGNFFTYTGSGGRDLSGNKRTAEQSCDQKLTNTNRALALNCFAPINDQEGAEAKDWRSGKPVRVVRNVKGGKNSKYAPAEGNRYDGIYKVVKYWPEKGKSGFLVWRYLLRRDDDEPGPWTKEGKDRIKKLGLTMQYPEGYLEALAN

[12] = molecular target: T5, PHD of UHRF1 (residues 307–366); experiment: ITC; in presence of SRA (1:1)
[13] = molecular target: T5, PHD of UHRF1 (residues 307–366); experiment: ITC; in presence of SRA (1:2)
[14] = molecular target: T5, PHD of UHRF1 (residues 307–366); experiment: ITC; in presence of SRA (PHD/SRA 1:1)
[15] = molecular target: T5, PHD of UHRF1 (residues 307–366); experiment: ITC; in presence of SRA (PHD/SRA 1:2)

Binder	Kd [1]	Kd [2]	Kd [3]	Kd [4]	Kd [5]	Kd [6]	Kd [7]	Kd [8]	Kd [9]	Kd [10]	Kd [11]	Kd [12]	Kd [13]	Kd [14]	Kd [15]
ARTKQTARKSTGGKAPR (trimethyl-lysine at K9) [H3K9me3 peptide (1–17)]	36800 nM	990 nM	1190 nM	880 nM	1630 nM	6580 nM	2890 nM	1280 nM	1630 nM						
ARTKQTARKSTGGKAPR [H3 peptide (1–17)]										770 nM	5790 nM	2040 nM	4640 nM	2040 nM	4640 nM

— publication PMC4822050 (2016)
